Source: paper PMC8324831, “A synthetic nanobody targeting RBD protects hamsters from SARS-CoV-2 infection” (Nature Communications, 2021)

B1: MR16 (VHH)
VHH: QVQLVESGGGLVQAGGSLRLSCAASGFPVERTWMEWYRQAPGKEREWVAAITSYGYRTYYADSVKGRFTISRDNAKNTVYLQMNSLKPEDTAVYYCNVKDEGSASSAYDYWGQGTQVTVS
B2: LR11 (VHH)
VHH: QVQLVESGGGSVQAGGSLRLSCAASGSISSITYLGWFRQAPGKEREGVAALVTHSGSTYYADSVKGRFTVSLDNAKNTVYLQMNSLKPEDTALYYCAAAYWGWDWPLNSQDYWYWGQGTQVTVS
B3: LR16 (VHH)
VHH: QVQLVESGGGSVQAGGSLRLSCAASGSISSITYLGWFRQAPGKEREGVAALYTTHGYTYYADSVKGRFTVSLDNAKNTVYLQMNSLKPEDTALYYCAAADWGYNIPLNITDYWYWGQGTQVTVS
B4: LR13 (VHH)
VHH: QVQLVESGGGSVQAGGSLRLSCAASGSISSITYLGWFRQAPGKEREGVAALITHAGRTYYADSVKGRFTVSLDNAKNTVYLQMNSLKPEDTALYYCAAADWGWYWPLVIDHYEYWGQGTQVTVS
B5: LR10 (VHH)
VHH: QVQLVESGGGSVQAGGSLRLSCAASGTISSITYLGWFRQAPGKEREGVAALTTNNGHTYYADSVKGRFTVSLDNAKNTVYLQMNSLKPEDTALYYCAAADWGYDWPLDRYHYWYWGQGTQVTVS
B6: LR15 (VHH)
VHH: QVQLVESGGGSVQAGGSLRLSCAASGSISSITYLGWFRQAPGKEREGVAALKTASGQTYYADSVKGRFTVSLDNAKNTVYLQMNSLKPEDTALYYCAAADWGYNWPLIREEYEYWGQGTQVTVS
B7: LR14 (VHH)
VHH: QVQLVESGGGSVQAGGSLRLSCAASGSIPGITYLGWFRQAPGKEREGVAALVTNSGHTYYADSVKGRFTVSLDNAKNTVYLQMNSLKPEDTALYYCAAADWGYQWPLDKAEYWYWGQGTQVTVS
B8: LR18 (VHH)
VHH: QVQLVESGGGSVQAGGSLRLSCAASGSISSITYLGWFRQAPGKEREGVAALVTENGHTYYADSVKGRFTVSLDNAKNTVYLQMNSLKPEDTALYYCAAATWGYEWPLYSNDYFYWGQGTQVTVS
B9: MR19 (VHH)
VHH: QVQLVESGGGLVQAGGSLRLSCAASGFPVRNTEHMYWYRQAPGKEREWVAAIFSMGRFTKYADSVKGRFTISRDNAKNTVYLQMNSLKPEDTAVYYCNVKDTGSFSEGYDYWGQGTQVTVS
B10: MR14 (VHH)
VHH: QVQLVESGGGLVQAGGSLRLSCAASGFPVMYTHMHWYRQAPGKEREWVAAIVSLGEYTTYADSVKGRFTISRDNAKNTVYLQMNSLKPEDTAVYYCNVKDWGAANKYYDYWGQGTQVTVS
B11: LR3 (VHH)
VHH: QVQLVESGGGSVQAGGSLRLSCAASGTINNITYLGWFRQAPGKEREGVAALITTSGYTYYADSVKGRFTVSLDNAKNTVYLQMNSLKPEDTALYYCAAASWGYEWPLVYDDYWYWGQGTQVTVS
B12: LR9 (VHH)
VHH: QVQLVESGGGSVQAGGSLRLSCAASGSISSITYLGWFRQAPGKEREGVAALITARGRTYYADSVKGRFTVSLDNAKNTVYLQMNSLKPEDTALYYCAAANWGYNWPLAYSDYWYWGQGTQVTVS
B13: LR6 (VHH)
VHH: QVQLVESGGGSVQAGGSLRLSCAASGSISSITYLGWFRQAPGKEREGVAALVTTSGNTYYADSVKGRFTVSLDNAKNTVYLQMNSLKPEDTALYYCAAATWGYSWPLEHDEYWYWGQGTQVTVS
B14: MR13 (VHH)
VHH: QVQLVESGGGLVQAGGSLRLSCAASGFPVKNMNMHWYRQAPGKEREWVAAIYSYGVETHYADSVKGRFTISRDNAKNTVYLQMNSLKPEDTAVYYCNVKDWGSYMNWYDYWGQGTQVTVS
B15: LR8 (VHH)
VHH: QVQLVESGGGSVQAGGSLRLSCAASGTIAYIKYLGWFRQAPGKEREGVAALMTRWGETYYADSVKGRFTVSLDNAKNTVYLQMNSLKPEDTALYYCAAANYGANFPLQANTYFYWGQGTQVTVS
B16: LR17 (VHH)
VHH: QVQLVESGGGSVQAGGSLRLSCAASGSIAHIKYLGWFRQAPGKEREGVAALMTRHGQTYYADSVKGRFTVSLDNAKNTVYLQMNSLKPEDTALYYCAAAYYGANFPLFQTGYTYWGQGTQVTVS
B17: LR12 (VHH)
VHH: QVQLVESGGGSVQAGGSLRLSCAASGSIASIKYLGWFRQAPGKEREGVAALMTRWGETYYADSVKGRFTVSLDNAKNTVYLQMNSLKPEDTALYYCAAAECGANSPLHAKDYSYWGQGTQVTVS
B18: MR15 (VHH)
VHH: QVQLVESGGGLVQAGGSLRLSCAASGFPVDTWMEWYRQAPGKEREWVAAITSYGYKTYYADSVKGRFTISRDNAKNTVYLQMNSLKPEDTAVYYCNVKDFGYASTYYDYWGQGTQVTVS
B19: LR7 (VHH)
VHH: QVQLVESGGGSVQAGGSLRLSCAASGSISSITYLGWFRQAPGKEREGVAALITNWGHTYYADSVKGRFTVSLDNAKNTVYLQMNSLKPEDTALYYCAAAFHGEQYPLYTNKYHYWGQGTQVTVS
B20: MR18 (VHH)
VHH: QVQLVESGGGLVQAGGSLRLSCAASGFPVWEHHMAWYRQAPGKEREWVAAITSKGRYTTYADSVKGRFTISRDNAKNTVYLQMNSLKPEDTAVYYCHVKDAGYFDAQYDYWGQGTQVTVS
B21: LR4 (VHH)
VHH: QVQLVESGGGSVQAGGSLRLSCAASGFIHSIYYLGWFRQAPGKEREGVAALNTQHGTTYYADSVKGRFTVSLDNAKNTVYLQMNSLKPEDTALYYCAAARWGRNYPLNYWQYSYWGQGTQVTVS
B22: LR2 (VHH)
VHH: QVQLVESGGGSVQAGGSLRLSCAASGDINAIGYLGWFRQAPGKEREGVAALDTDEGQTYYADSVKGRFTVSLDNAKNTVYLQMNSLKPEDTALYYCAAAMNGYNEPLYSYDYEYWGQGTQVTVS
B23: sybody LR5 (VHH)
VHH: QVQLVESGGGSVQAGGSLRLSCAASGSISSITYLGWFRQAPGKEREGVAALITSNGRTYYADSVKGRFTVSLDNAKNTVYLQMNSLKPEDTALYYCAAATWGYHWPLGAWDYWYWGQGTQVTVS
B24: sybody LR1 (VHH)
VHH: QVQLVESGGGSVQAGGSLRLSCAASGSISSITYLGWFRQAPGKEREGVAALITDSGRTYYADSVKGRFTVSLDNAKNTVYLQMNSLKPEDTALYYCAAAEWGYEWPLYYASSWYWGQGTQVTVS
B25: sybody MR4 (VHH)
VHH: QVQLVESGGGLVQAGGSLRLSCAASGFPMYAWEMAWYRQAPGKEREWVAAIRSMGVHTHYSDSVKGRFTISRDNAKNTVYLQMNSLKPEDTAVYYCNVKDFGGHQAYYDYWGQGTQVTVS
B26: sybody MR3 (VHH)
VHH: QVQLVESGGGLVQAGGSLRLSCAASGFPVNAHFMYWYRQAPGKEREWVAAIYSYGRTLYADSVKGRFTISRDNAKNTVYLQMNSLKPEDTAVYYCNVKDYGAASWEYDYWGQGTQVTVS
B27: Fc-MR3 (Fc fusion)
chain: GSSSQVQLVESGGGLVQAGGSLRLSCAASGFPVNAHFMYWYRQAPGKEREWVAAIYSYGRTLYADSVKGRFTISRDNAKNTVYLQMNSLKPEDTAVYYCNVKDYGAASWEYDYWGQGTQVTVSERKCCVECPPCPAPPVAGPSVFLFPPKPKDTLMISRTPEVTCVVVDVSHEDPEVQFNWYVDGVEVHNAKTKPREEQFNSTFRVVSVLTVVHQDWLNGKEYKCKVSNKGLPAPIEKTISKTKGQPREPQVYTLPPSREEMTKNQVSLTCLVKGFYPSDIAVEWESNGQPENNYKTTPPMLDSDGSFFLYSKLTVDKSRWQQGNVFSCSVMHEALHNHYTQKSLSLSPGK
B28: sybody MR17 (VHH)
VHH: QVQLVESGGGLVQAGGSLRLSCAASGFPVEVWRMEWYRQAPGKEREGVAAIESYGHGTRYADSVKGRFTISRDNAKNTVYLQMNSLKPEDTAVYYCNVKDDGQLAYHYDYWGQGTQVTVS

Molecular target: T1, SARS-CoV-2 S-RBD with Avi-tag and deca-His tag (residues 330-531) (SARS-CoV-2, UniProt P0DTC2, biotin on the Avi tag (BirA) where immobilised on streptavidin sensors or used in ELISA and FSEC)
Assay: not given
Conditions: not given

Question: Does B1 bind?
Answer: Result: binds

Question: Does B2 bind?
Answer: Result: binds

Question: Does B3 bind?
Answer: Result: binds

Question: Does B4 bind?
Answer: Result: binds

Question: Does B5 bind?
Answer: Result: binds

Question: Does B6 bind?
Answer: Result: binds

Question: Does B7 bind?
Answer: Result: binds

Question: Does B8 bind?
Answer: Result: binds

Question: Does B9 bind?
Answer: Result: binds

Question: Does B10 bind?
Answer: Result: binds

Question: Does B11 bind?
Answer: Result: binds

Question: Does B12 bind?
Answer: Result: binds

Question: Does B13 bind?
Answer: Result: binds

Question: Does B14 bind?
Answer: Result: binds

Question: Does B15 bind?
Answer: Result: binds

Question: Does B16 bind?
Answer: Result: binds

Question: Does B17 bind?
Answer: Result: binds

Question: Does B18 bind?
Answer: Result: binds

Question: Does B19 bind?
Answer: Result: binds

Question: Does B20 bind?
Answer: Result: binds

Question: Does B21 bind?
Answer: Result: binds

Question: Does B22 bind?
Answer: Result: binds

Molecular target: T1, SARS-CoV-2 S-RBD with Avi-tag and …
Assay: SEC
Conditions: one partner purified

Question: Does B23 bind?
Answer: Result: binds

Question: Does B24 bind?
Answer: Result: binds

Question: Does B25 bind?
Answer: Result: binds

Molecular target: T1, SARS-CoV-2 S-RBD with Avi-tag and …
Assay: cell-based or functional assay
Conditions: not given

Question: For B26, which “IC50 of neutralisation of SARS-CoV-2 S pseudovirus on VeroE6-hACE2 cells (blocks RBD-ACE2)” value is on record?
Answer: Its value is 0.42 µg/mL.

Molecular target: SARS-CoV-2 S-RBD with Avi-tag and deca-His tag (residues 330-531) (SARS-CoV-2, UniProt P0DTC2 330-531)
Assay: cell-based or functional assay
Conditions: not given

Question: Which “IC50 of neutralisation of SARS-CoV-2 S pseudovirus on VeroE6-hACE2 cells (blocks RBD-ACE2)” value does the source give for B27 here?
Answer: Its value is 0.042 µg/mL.

Molecular target: T1, SARS-CoV-2 S-RBD with Avi-tag and …
Assay: BLI; Octet RED96; biotinylated RBD immobilised on SA sensor; sybodies as analytes; 30 °C; 0.005% Tween 20, 150 mM NaCl, 20 mM Tris HCl pH 8.0; fitted for 1:1 stoichiometry
Conditions: both partners purified

Question: How did the Kd turn out when B28 was run?
Answer: Its Kd is 83.7 nM.

Question: For B26, which Kd is on record?
Answer: The Kd was 1 nM.

Question: And the koff?
Answer: Its koff is 0.00023 s⁻¹.
